This is an account of results in publication PMC4591219 (Cell reports, 2015).

One data set has as its target T1, Pot1-F520A (Schizosaccharomyces pombe, UniProt O13988 1-555, F520A).
T1 sequence: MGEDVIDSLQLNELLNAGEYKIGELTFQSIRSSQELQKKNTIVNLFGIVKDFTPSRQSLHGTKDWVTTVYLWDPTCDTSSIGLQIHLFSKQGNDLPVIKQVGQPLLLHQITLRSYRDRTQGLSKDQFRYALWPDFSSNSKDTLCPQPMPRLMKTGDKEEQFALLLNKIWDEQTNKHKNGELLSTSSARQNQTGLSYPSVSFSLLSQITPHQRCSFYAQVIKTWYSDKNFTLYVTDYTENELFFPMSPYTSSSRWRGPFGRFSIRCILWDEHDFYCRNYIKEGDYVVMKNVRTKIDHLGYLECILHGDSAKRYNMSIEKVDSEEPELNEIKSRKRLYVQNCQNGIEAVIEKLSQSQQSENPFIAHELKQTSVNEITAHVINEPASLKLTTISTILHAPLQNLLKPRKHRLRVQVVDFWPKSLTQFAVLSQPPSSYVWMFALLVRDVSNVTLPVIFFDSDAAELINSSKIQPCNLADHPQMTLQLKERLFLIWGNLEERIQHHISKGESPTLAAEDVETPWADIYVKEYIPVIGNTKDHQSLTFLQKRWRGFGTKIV
Put plainly: EMSA. A general note: Mobility shift assays separate free from complexed probe on a gel.

In the next data set the target is T2, Pot1-I453R (Schizosaccharomyces pombe, UniProt O13988 1-555, I453R).
T2 sequence: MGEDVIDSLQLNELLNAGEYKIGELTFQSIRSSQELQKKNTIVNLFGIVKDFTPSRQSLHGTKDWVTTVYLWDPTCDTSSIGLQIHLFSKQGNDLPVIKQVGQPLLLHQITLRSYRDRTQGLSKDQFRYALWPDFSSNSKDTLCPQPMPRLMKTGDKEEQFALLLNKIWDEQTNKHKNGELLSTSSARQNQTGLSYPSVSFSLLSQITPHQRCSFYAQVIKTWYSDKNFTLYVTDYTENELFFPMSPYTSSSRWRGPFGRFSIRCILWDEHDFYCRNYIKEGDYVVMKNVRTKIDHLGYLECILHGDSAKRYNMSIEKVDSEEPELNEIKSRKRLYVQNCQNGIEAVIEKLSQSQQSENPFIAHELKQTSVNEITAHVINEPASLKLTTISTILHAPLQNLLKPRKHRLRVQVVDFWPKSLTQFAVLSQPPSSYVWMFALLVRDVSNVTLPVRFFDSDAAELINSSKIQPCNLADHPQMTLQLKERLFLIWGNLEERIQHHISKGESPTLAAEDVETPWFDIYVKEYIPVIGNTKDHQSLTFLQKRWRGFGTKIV
Kind of data set: EMSA.

For data set [1], the target named is T3, full-length Pot1 (in the purified Pot1–Tpz1-NTD complex) (S. pombe, UniProt O13988 1-555).
T3 sequence: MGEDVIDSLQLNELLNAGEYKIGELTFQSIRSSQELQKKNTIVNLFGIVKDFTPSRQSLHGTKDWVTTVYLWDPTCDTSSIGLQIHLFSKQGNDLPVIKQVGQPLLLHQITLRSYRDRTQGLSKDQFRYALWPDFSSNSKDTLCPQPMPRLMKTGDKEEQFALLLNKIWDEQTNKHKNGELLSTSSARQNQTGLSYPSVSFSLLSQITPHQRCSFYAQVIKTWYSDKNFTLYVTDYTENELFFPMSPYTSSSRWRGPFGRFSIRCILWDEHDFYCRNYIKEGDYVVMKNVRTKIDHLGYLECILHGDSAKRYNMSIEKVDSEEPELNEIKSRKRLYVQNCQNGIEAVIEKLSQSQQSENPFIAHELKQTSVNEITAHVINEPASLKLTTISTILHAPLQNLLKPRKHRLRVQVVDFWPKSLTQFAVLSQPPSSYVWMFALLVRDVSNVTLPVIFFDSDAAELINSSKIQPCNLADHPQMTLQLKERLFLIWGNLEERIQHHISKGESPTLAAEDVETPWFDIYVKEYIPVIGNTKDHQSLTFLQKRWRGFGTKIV
Kind of data set: cross-linking.

The target in data set [2] is T4, Pot1 (wild type, recombinant, GST pull-down) (S. pombe, UniProt O13988 1-555).
T4 sequence: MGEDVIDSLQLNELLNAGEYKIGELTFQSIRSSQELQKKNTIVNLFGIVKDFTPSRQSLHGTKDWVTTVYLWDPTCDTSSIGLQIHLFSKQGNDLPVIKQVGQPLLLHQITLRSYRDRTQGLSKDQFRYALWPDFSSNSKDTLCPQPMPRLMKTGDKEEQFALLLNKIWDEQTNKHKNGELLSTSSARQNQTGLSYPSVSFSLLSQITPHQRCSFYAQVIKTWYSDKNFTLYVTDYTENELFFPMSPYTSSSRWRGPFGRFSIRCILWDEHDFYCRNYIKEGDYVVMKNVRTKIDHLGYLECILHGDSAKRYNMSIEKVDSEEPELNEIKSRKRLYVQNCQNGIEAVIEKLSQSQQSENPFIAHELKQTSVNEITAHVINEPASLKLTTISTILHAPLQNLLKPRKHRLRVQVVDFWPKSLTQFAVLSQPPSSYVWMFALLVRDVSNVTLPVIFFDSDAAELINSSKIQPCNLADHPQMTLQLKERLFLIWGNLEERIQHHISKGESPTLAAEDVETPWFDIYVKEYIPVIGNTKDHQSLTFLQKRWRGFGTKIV
Kind of data set: pull-down.

In a further data set the target is T5, Ccq1 (130–439) (S. pombe, UniProt Q10432 130-439).
T5 sequence: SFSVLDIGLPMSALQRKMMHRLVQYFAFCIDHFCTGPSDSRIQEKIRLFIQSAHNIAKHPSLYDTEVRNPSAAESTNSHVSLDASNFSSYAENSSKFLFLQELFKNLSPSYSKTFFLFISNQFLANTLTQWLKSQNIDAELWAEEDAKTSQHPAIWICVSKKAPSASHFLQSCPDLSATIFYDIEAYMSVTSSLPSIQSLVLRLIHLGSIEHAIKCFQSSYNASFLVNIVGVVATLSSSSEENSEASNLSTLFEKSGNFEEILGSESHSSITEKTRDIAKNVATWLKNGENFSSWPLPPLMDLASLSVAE
Kind of data set: cross-linking.

Data set [3] deals with T6, full-length Poz1 (in the purified Poz1-Tpz1 complex) (S. pombe, UniProt O13852 1-249).
T6 sequence: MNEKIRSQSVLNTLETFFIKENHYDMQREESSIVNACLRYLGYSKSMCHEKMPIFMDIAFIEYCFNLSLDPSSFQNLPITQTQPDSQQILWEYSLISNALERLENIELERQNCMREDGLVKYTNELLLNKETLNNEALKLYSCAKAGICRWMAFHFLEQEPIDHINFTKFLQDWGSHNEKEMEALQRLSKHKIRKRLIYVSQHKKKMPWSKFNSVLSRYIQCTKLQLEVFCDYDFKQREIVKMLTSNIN
Put plainly: cross-linking.

In data set [4] the target is T7, Poz1 (wild type, recombinant, GST pull-down) (S. pombe, UniProt O13852 1-249).
T7 sequence: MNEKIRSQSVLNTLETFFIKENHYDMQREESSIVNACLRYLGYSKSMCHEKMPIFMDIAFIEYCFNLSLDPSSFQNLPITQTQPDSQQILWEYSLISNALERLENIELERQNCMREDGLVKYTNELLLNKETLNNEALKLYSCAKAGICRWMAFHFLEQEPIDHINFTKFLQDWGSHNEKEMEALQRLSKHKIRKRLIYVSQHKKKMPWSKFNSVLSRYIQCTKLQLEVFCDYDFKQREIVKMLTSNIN
Kind of data set: pull-down.

A further data set addresses T8, Poz1-W174R (recombinant) (S. pombe, UniProt O13852 1-249, W174R).
T8 sequence: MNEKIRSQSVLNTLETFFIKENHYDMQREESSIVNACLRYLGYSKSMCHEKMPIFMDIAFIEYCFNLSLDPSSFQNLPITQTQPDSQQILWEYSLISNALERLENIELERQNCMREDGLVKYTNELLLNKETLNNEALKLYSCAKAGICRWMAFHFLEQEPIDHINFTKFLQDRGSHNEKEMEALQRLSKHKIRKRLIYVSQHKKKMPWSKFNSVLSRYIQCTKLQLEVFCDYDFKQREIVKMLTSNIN
Kind of data set: pull-down.

A further data set deals with T9, Poz1-W209A (recombinant) (S. pombe, UniProt O13852 1-249, W209A).
T9 sequence: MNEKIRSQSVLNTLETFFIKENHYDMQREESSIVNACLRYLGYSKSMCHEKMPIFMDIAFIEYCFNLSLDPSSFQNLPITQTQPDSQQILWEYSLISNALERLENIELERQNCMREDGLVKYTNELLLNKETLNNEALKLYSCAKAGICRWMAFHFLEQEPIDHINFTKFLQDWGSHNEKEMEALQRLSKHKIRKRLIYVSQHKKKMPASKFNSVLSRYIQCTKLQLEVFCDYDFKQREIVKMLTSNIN
Put plainly: pull-down.

In the case of GTTACGGTTACAGGTTACG (ssDNA) [telomeric ssDNA 19-mer], the binding result in the data set with Pot1-F520A and with Pot1-I453R was “binds” in each case.

B1: Tpz1-NTD (1–234) (in the purified Pot1–Tpz1-NTD complex) (domain or fragment)
chain: MSNCLKHPWLENGLLNLIKNADVLPIRVFKCQPLQIFEYIRYEHPIRCKLSDTEFYIEAEFSSQSISDLNNFTEKRITSLRGGIVTLGNFLIHLIPSQSGIIPWIQVESFNFQGCEGAVFGNPKAITTSALFNALLQSPYLAALANEFNRSIKEGSSYQEASLSQQEKPNDNTSNSRDIKNNIQFHWKNMTSLSIEECIIPKGQQLILEKESEENTTHGIYLEERKMAQGLHNS
Regarding B1, the binding result in [1] is given as “binds”.

B2: GST-Tpz1-NTD (2–234) (domain or fragment)
chain: SNCLKHPWLENGLLNLIKNADVLPIRVFKCQPLQIFEYIRYEHPIRCKLSDTEFYIEAEFSSQSISDLNNFTEKRITSLRGGIVTLGNFLIHLIPSQSGIIPWIQVESFNFQGCEGAVFGNPKAITTSALFNALLQSPYLAALANEFNRSIKEGSSYQEASLSQQEKPNDNTSNSRDIKNNIQFHWKNMTSLSIEECIIPKGQQLILEKESEENTTHGIYLEERKMAQGLHNS
As for B2, the binding result in data set [2] is listed as “binds”.

On to AINFTSDICNEQIELEYKRKPIPDYDFMKGLETTLQELYVEHQS (domain or fragment) [Tpz1 (415–458)], for which the binding result with Ccq1 (130–439) is given as “binds”.

B3: Tpz1 (406–508) (in the purified Poz1-Tpz1 complex) (domain or fragment)
chain: SSVISCTPPAINFTSDICNEQIELEYKRKPIPDYDFMKGLETTLQELYVEHQSKKRRLELFQLTNNHQKNSEACEMCRLGLPHGSFFELLRDWKKIEEFRNKS
On to B3, for which, in data set [3], the binding result is “binds”.

B4: GST-Tpz1-CTD (406–508) (domain or fragment)
chain: SSVISCTPPAINFTSDICNEQIELEYKRKPIPDYDFMKGLETTLQELYVEHQSKKRRLELFQLTNNHQKNSEACEMCRLGLPHGSFFELLRDWKKIEEFRNKS
With B4, the binding result (in [4]; in the data set with Poz1-W174R (recombinant); in the data set with Poz1-W209A (recombinant)) was “binds” in each case.
